The target in this assay is T1, His-tagged GATA1 (UniProt P15976 1-413).
T1 construct: GATA1; also called purified His-tagged GATA1 protein; source: His fusion from pET-28a, expressed and purified according to the manufacturers' instructions (Qiagen)
Nature of the assay: pull-down; GST pull-down: purified His fusion protein incubated with GST fusion protein bound to GST beads for 4 h at 4°C; immunoblot. As to conditions: both partners purified. In general terms: A western blot detects proteins with antibodies after separation by electrophoresis.

T1 sequence (P15976 whole entry, the tested form may be a part): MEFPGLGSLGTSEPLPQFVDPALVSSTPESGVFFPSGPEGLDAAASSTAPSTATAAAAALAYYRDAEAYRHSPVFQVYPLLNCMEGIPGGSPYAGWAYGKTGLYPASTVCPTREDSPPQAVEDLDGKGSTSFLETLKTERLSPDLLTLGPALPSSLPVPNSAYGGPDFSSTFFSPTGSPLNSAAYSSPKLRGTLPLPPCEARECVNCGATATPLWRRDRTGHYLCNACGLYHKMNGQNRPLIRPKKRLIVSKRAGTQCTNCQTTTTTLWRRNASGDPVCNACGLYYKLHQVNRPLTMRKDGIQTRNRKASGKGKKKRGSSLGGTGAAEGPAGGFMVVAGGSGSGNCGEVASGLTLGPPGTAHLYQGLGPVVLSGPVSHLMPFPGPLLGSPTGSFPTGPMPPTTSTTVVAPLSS

B1: GST-SET7 (enzyme, UniProt Q8WTS6 1-366, looked up)
chain: MDSDDEMVEEAVEGHLDDDGLPHGFCTVTYSSTDRFEGNFVHGEKNGRGKFFFFDGSTLEGYYVDDALQGQGVYTYEDGGVLQGTYVDGELNGPAQEYDTDGRLIFKGQYKDNIRHGVCWIYYPDGGSLVGEVNEDGEMTGEKIAYVYPDERTALYGKFIDGEMIEGKLATLMSTEEGRPHFELMPGNSVYHFDKSTSSCISTNALLPDPYESERVYVAESLISSAGEGLFSKVAVGPNTVMSFYNGVRITHQEVDSRDWALNGNTLSLDEETVIDVPEPYNHVSKYCASLGHKANHSFTPNCIYDMFVHPRFGPIKCIRTLRAVEADEELTVAYGYDHSPPGKSGPEAPEWYQVELKAFQATQQK
notes: SET7 (SETD7); also called purified GST-SET7; source: GST fusion from pGEX-KG, expressed and purified according to the manufacturers' instructions (Amersham Pharmacia)
With B1, the binding result was “binds”.

(Values after publication PMC4891089, “The transcription factor GATA1 and the histone methyltransferase SET7 interact to promote VEGF-mediated angiogenesis and tumor growth and predict clinical outcome of breast cancer” (Oncotarget, 2016).)
